# In PMC8680157:
# Assays:
# [1] = target: fluorescently labelled nucleosome core particle (NCP), non-ubiquitylated (human) (UniProt P68431); assay: fluorescence polarisation
# [2] = target: fluorescently labelled nucleosome core particle ubiquitylated at H2A K13 and K15 (human) (UniProt P68431); assay: fluorescence polarisation
# Chain of GST-tagged BARD1 (ARD–BRCT), residues 415–777, wild type (Q99728 415-777): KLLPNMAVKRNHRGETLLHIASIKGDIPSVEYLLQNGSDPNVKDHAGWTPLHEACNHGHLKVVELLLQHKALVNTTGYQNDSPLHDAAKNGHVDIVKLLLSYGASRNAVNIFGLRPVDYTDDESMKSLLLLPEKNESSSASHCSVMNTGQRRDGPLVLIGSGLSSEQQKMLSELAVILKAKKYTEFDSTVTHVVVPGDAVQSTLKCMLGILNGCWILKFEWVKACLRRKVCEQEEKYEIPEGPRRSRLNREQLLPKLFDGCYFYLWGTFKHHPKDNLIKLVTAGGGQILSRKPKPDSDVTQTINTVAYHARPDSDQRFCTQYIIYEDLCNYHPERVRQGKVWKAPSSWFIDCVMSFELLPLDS
Kd [1],Kd [2],Substance
60 nM,20 nM,"BRCA1^R–BARD1^Long, BRCA1 (residues 1–100)–BARD1 (residues 26–777) (from UniProt P38398 1-100; Q99728 26-777) (enzyme)"
8000 nM,–,"BRCA1^R–BARD1^R, fusion of BRCA1 (residues 1–100) and BARD1 (residues 26–122) (from UniProt P38398 1-100; Q99728 26-122) (enzyme)"
–,200 nM,"GST-tagged BARD1 (ARD–BRCT), residues 415–777, wild type (from UniProt Q99728 415-777) (domain or fragment)"
